Results reported in publication PMC7958597, “In Vivo Biodistribution and Efficacy Evaluation of NeoB, A Radiotracer Targeted to GRPR, in Mice Bearing Gastrointestinal Stromal Tumor” (Cancers, 2021).
Where “and” joins values, the source holds several entries; their conditions need not be identical. Identical values can stand only once. Like-named read-outs stand apart in the source and are kept apart here.

How the values were obtained:
[1] = Stability of the radiolabeled preparation by radio-HPLC (RCP); type: physicochemical; details: 24 h after labeling; Symmetry C18, H2O/acetonitrile 0.1% TFA gradient
Description: ^177Lu^3+ in aqueous 0.04 M HCl solution was purchased from ITG (Garding, Germany). Chemicals for radiolabeling were of trace metal® grade. Radiochemical purity (RCP) of each radiolabeled solution was determined using a high performance liquid chromatography (HPLC) apparatus (Shimadzu, France) equipped with NaI (Tl) scintillation detectors (LabLogic, UK). The radiolabeling was performed as previously described (25). For the biodistribution sub study, 92 nmol of NeoB was radiolabeled with 370 MBq of ^177LuCl3 and the reaction was then incubated at 95 °C for 7 min. The concentration was then adjusted at 200 pmol/100 µL (0.8 MBq) and a sterilizing filtration was performed. A similar protocol was employed for the therapy sub-study, using 20 nmol of NeoB and 1850 MBq of Lu-177. The concentration was then adjusted at 400 pmol/100 µL (37 MBq). A second solution of 800 pmol per 100 µL (37 MBq) was obtained by the addition of unlabeled NeoB peptide. A 0.22 µm sterile filtration was then performed. Radiochemical purity (RCP) was determined immediately after labeling and at 24 h by radio-HPLC analysis using an analytical reverse-phase column (Symmetry C18, 5 μm, 150 × 4.6 mm). A gradient elution was performed using solvent A (H2O, 0.1% TFA) and solvent B (acetonitrile, 0.1% TFA) as mobile phase at a flow rate of 1 mL/min.

[2] = Tolerability in the efficacy sub-study (body weight, pancreas histology HES); type: in vivo, mice; details: 400 or 800 pmol, 37 MBq once a week for 3 weeks
Description: (§1) Efficacy was evaluated on 40 mice when the tumor volume reached ~100 mm^3. Control mice were intravenously injected with saline (Control group, n = 13), whereas treated mice received either 400 pmol (400 pmol group, n = 13) or 800 pmol (800 pmol group, n = […]) of 37 MBq of [^177Lu]Lu-NeoB once a week for 3 weeks. Tumor size was recorded 3 times per week before and after therapy administration and 5 times per week during the 3 weeks of the therapy administration. When a tumor volume exceeding 1500 mm^3 the animal was removed from the study and euthanized by CO2 inhalation. Pancreas was then frozen, 10 µm-thick slices were stained using hemato-eosin saffron (HES) and subsequently analyzed by a histopathologist.

GIST-882 tumor = assay: Therapeutic efficacy (tumor growth, survival without reaching limit tumor volume); type: in vivo, mice; details: for mice excluded due to tumor volume over the limit of 1500 mm^3: 100 days of follow-up, 5 out of 13 control mice reached the limit; for tumor volume in comparison to control group: 37 MBq i.v. once a week for 3 weeks, day 0-26
Description: (§2) All procedures were performed in accordance with the institutional guidelines and approved by the animal care and use committee of Grenoble University (APAFIS#6544-2016082615349282 v8). The study was performed on 6-weeks old male SCID mice (Charles River). A total of 82 mice were used, 42 for the biodistribution sub-study and 40 for the therapy sub-study. Mice were subcutaneously inoculated into the left flank with GIST-882 (2 to 4 × 10^6) in a 1:1 PBS/Matrigel® (Corning, Corning, NY, USA) mixture.
as §1

PC-3 bearing mice = details: cited from earlier work
Text: In this study, we evaluate for the first time the theragnostic potential of [^177Lu]Lu-NeoB for tumor treatment by performing biodistribution and therapeutic studies in mice bearing GIST. In accordance with above mentioned finding, injected mass ranging from 200 to 800 pmol were employed. […] Indeed, in PC-3 be ...

[3] = SPECT-CT quantification of tumor uptake; type: in vivo, mice; details: male, SCID, mouse, GIST-882 tumor, iv, total radioactivity, 37 MBq i.v., 24 h post injection, n = 3
Description: Dual single photon emission computed tomography and x-ray computed tomography (SPECT-CT) imaging were performed in a subset of 6 mice of the therapeutic efficacy sub-study (3 from 400 pmol group and 3 from 800 pmol group). Acquisitions were performed the day after [^177Lu]Lu-NeoB injection (24 h post injection). SPECT-CT acquisitions were performed using a dedicated camera (nanoscan SPECT/CT, Mediso, Budapest, Hungary). Animals were placed on a pathogen-free animal handling system (MulticellTM, Mediso, Budapest, Hungary) under gas anesthesia (isoflurane 1–2%). Whole body imaging was performed. SPECT duration was of approximately 35 min, and CT acquisition of 5 min (at 35 kvp). Acquisitions were reconstructed with Nucline software using Monte Carlo reconstruction and scatter and attenuation correction, corrected for decay and expressed as % injected dose per gram (% ID/g). Image analysis was performed using Vivoquant software (version 3.5, Invicro, Boston, MA, USA).

[4] = Biodistribution of [^177Lu]Lu-NeoB by organ sampling and gamma counting; type: in vivo, mice; details: male, mouse, iv, total radioactivity
Description: as §2
(§3) Biodistribution of [^177Lu]Lu-NeoB was evaluated when the tumor volume reached ~200 mm^3. The biodistribution was evaluated at 7 time points (1 h, 4 h, 4 h + block, 24 h, 48 h, 96 h, and 168 h). The compound was injected intravenously (100 µL/200 pmol/~0.8 MBq per mice). Moreover, an excess of 40 nmol unlabeled NeoB was co-injected in the mice of the 4 h + block condition. At the selected time point, mice were euthanized by CO2 inhalation, and the main organs and fluids were sampled and weighed. The activity was determined using a gamma well counter (Wizard^2 PerkinElmer, Waltham, MA, USA), the results were corrected for background, decay and sample weight, and the data were expressed as a % ID/g (percentage of injected dose per gram of tissue).

[5] = system: SCID mice bearing GIST-882 tumors (GRPR expressing); assay: as above; type: in vivo
Description: as §2, §3

[6] = from time activity curve 1-168 h, 200 pmol i.v.

With `CC(C)CC(CC(C)C)NC(=O)[C@H](Cc1cnc[nH]1)NC(=O)CNC(=O)[C@@H](NC(=O)[C@H](C)NC(=O)[C@H](Cc1c[nH]c2ccccc12)NC(=O)[C@H](CCC(N)=O)NC(=O)[C@@H](Cc1ccccc1)NC(=O)COCC(=O)Nc1ccc(CNC(=O)CN2CCN(CC(=O)O)CCN(CC(=O)O)CCN(CC(=O)O)CC2)cc1)C(C)C` [[^177Lu]Lu-NeoB, metal not drawn] as the compound, how does the “stability after labeling (radiochemical purity by radio-HPLC)” value [1] read?
Its value is “remained stable”.

And the “total body weight of treated animals” value [2]?
Its value is “No change”.

And the “off-target effect (inflammation, fibrosis, architecture alteration) on HES stained pancreatic sections” value ([2]; end of follow up)?
The value was “no off-target effect”.

What about the tumor regression (GIST-882 tumor; 400 pmol dose, 37 MBq once a week for 3 weeks) of the same compound?
The tumor regression was “complete tumor regression”.

And the “mice excluded due to tumor volume over the limit of 1500 mm^3” value (GIST-882 tumor; 400 pmol group)?
Its value is “none”.

What about the residual tumor (GIST-882 tumor; 400 pmol group, from day 65) of the same compound?
The residual tumor was “no residual tumor volume”.

What about the “tumor volume in comparison to control group” value (GIST-882 tumor; 400 pmol, p = 0.0001) of the same compound?
Its value is “significantly reduced”.

What about the “mice excluded due to tumor volume over the limit of 1500 mm^3” value (GIST-882 tumor; 800 pmol group) of the same compound?
Its value is “none”.

And the “tumor volume in comparison to control group” value (GIST-882 tumor; 800 pmol, p = 0.0066)?
Its value is “significantly reduced”.

What about the pancreas half-life (PC-3 bearing mice; 200 pmol) of the same compound?
The pancreas half-life was 11 h.

What about the “tumor half-life in prostate tumors” value (PC-3 bearing mice; 200 pmol) of the same compound?
Its value is 28 h.

What about the tumor-to-pancreas ratio (PC-3 bearing mice; as early as 4 h after injection of 200 pmol) of the same compound?
Its tumor-to-pancreas ratio is > 1.

What about the tissue uptake at 24 h ([3]; 400 pmol group) of the same compound?
Its tissue uptake at 24 h is ~11 %ID/g.

What about the tissue uptake at 24 h ([3]; 800 pmol group, p < 0.05 vs 400 pmol) of the same compound?
The tissue uptake at 24 h was ~7 %ID/g.

What about the tissue uptake at 1 h ([4]; SCID, GIST-882 tumor, 200 pmol/mouse, 1 h pi, 200 pmol/~0.8 MBq i.v., mean ± SD, read-out: uptake in GIST-882 tumor) of the same compound?
Its tissue uptake at 1 h is 21.6 ± 1.7 %ID/g.

And the tissue uptake at 4 h ([4]; SCID, GIST-882 tumor, 200 pmol/mouse, 4 h pi, 200 pmol/~0.8 MBq i.v., mean ± SD, read-out: uptake in GIST tumor)?
The tissue uptake at 4 h was 19.1 ± 3.9 %ID/g.

And the tissue uptake at 24 h ([4]; SCID, GIST-882 tumor, 200 pmol/mouse, 24 h pi, 200 pmol i.v., mean ± SD)?
Its tissue uptake at 24 h is 13.4 ± 3.5 %ID/g.

What about the tissue uptake at 48 h ([4]; SCID, GIST-882 tumor, 200 pmol/mouse, 48 h pi, 200 pmol i.v., mean ± SD) of the same compound?
Its tissue uptake at 48 h is 10.5 ± 1.6 %ID/g.

And the tissue uptake at 96 h ([4]; SCID, GIST-882 tumor, 200 pmol/mouse, 96 h pi, 200 pmol i.v., mean ± SD)?
The tissue uptake at 96 h was 5.9 ± 0.3 %ID/g.

And the tissue uptake at 168 h ([4]; SCID, GIST-882 tumor, 200 pmol/mouse, 168 h pi, 200 pmol i.v., mean ± SD)?
The tissue uptake at 168 h was 2.5 ± 0.7 %ID/g.

And the tissue uptake at 4 h ([4]; SCID, GIST-882 tumor, 4 h pi, co-injected with excess of 40 nmol unlabeled NeoB, mean ± SD, read-out: uptake in GIST tumor, 4 h + block)?
The tissue uptake at 4 h was 0.3 ± 0.1 %ID/g.

What about the tissue uptake at 1 h ([4]; SCID, bladder, 200 pmol/mouse, 1 h pi, 200 pmol/~0.8 MBq i.v., mean ± SD, read-out: uptake in bladder) of the same compound?
Its tissue uptake at 1 h is 20.6 ± 19.7 %ID/g.

And the tissue uptake at 4 h ([4]; SCID, large bowel content, 200 pmol/mouse, 4 h pi, 200 pmol/~0.8 MBq i.v., mean ± SD, read-out: uptake in large bowel content)?
Its tissue uptake at 4 h is 10 ± 3.5 %ID/g.

What about the tissue uptake at 1 h ([4]; SCID, pancreas, 200 pmol/mouse, 1 h pi, 200 pmol/~0.8 MBq i.v., mean ± SD, read-out: uptake in pancreas) of the same compound?
The tissue uptake at 1 h was 19.8 ± 2.6 %ID/g.

And the tissue uptake at 4 h ([4]; SCID, pancreas, 200 pmol/mouse, 4 h pi, 200 pmol/~0.8 MBq i.v., mean ± SD, read-out: uptake in pancreas)?
The tissue uptake at 4 h was 8.5 ± 2 %ID/g.

And the tissue uptake at 4 h ([4]; SCID, pancreas, 4 h pi, co-injected with excess of 40 nmol unlabeled NeoB, mean ± SD, read-out: uptake in pancreas, 4 h + block)?
Its tissue uptake at 4 h is 0.1 %ID/g.

What about the tissue to tissue ratio ([4]; SCID, tumor and kidney, 200 pmol/mouse, all investigated time points 1-168 h) of the same compound?
The tissue to tissue ratio was > 1.

And the tissue to tissue ratio at 96 h ([4]; SCID, tumor and kidney, 200 pmol/mouse, at 96 h, mean ± SD, read-out: tumor-to-kidney ratio (maximum value))?
Its tissue to tissue ratio at 96 h is 112 ± 5.

What about the tissue to tissue ratio at 48 h ([4]; SCID, tumor and liver, 200 pmol/mouse, at 48 h, mean ± SD, read-out: tumor-to-liver ratio (maximum value)) of the same compound?
The tissue to tissue ratio at 48 h was 54 ± 5.

What about the tissue to tissue ratio at 168 h ([4]; SCID, tumor and pancreas, 200 pmol/mouse, at 168 h (1 week), mean ± SD, read-out: tumor-to-pancreas ratio (maximum value)) of the same compound?
Its tissue to tissue ratio at 168 h is 309 ± 148.

What about the excreta dose per gram or mL at 4 h ([4]; SCID, urine, 200 pmol/mouse, 4 h pi, 200 pmol/~0.8 MBq i.v., mean ± SD, read-out: uptake in urine) of the same compound?
The excreta dose per gram or mL at 4 h was 216 ± 193 %ID/g.

And the excreta dose per gram or mL at 1 h ([4]; urine, 200 pmol/mouse, 1 h pi, 200 pmol/~0.8 MBq i.v., GIST-882 bearing SCID mice, gamma counter, mean ± SD, read-out: uptake in urine)?
Its excreta dose per gram or mL at 1 h is 600 ± 155 %ID/g.

And the “uptake in GIST tumor” value ([5]; 4 h pi, 200 pmol/~0.8 MBq i.v., mean ± SD)?
Its value is 19.1 ± 3.9 % ID/g.

And the “decrease of uptake in GIST tumor by co-injection of unlabeled NeoB” value ([5]; 4 h pi, 40 nmol unlabeled NeoB)?
The value was > 98%.

What about the “uptake in GIST tumor, 4 h + block” value ([5]; 4 h pi, co-injected with excess of 40 nmol unlabeled NeoB, mean ± SD) of the same compound?
The value was 0.3 ± 0.1 % ID/g.

What about the “uptake in adrenals, blood, GIST tumor, large and small bowel, pancreas and stomach when co-injected with excess unlabeled NeoB” value ([5]; 4 h pi, p < 0.05, multiple t tests, Holm-Sidak) of the same compound?
Its value is “significantly reduced”.

And the “tumor-to-pancreas ratio (maximum value)” value ([5]; at 168 h (1 week), mean ± SD)?
The value was > 300.

And the half-life in pancreas [5, 6]?
Its half-life in pancreas is 2.41 h and 2.4 h.

What about the “half-life of retention in GIST tumor” value [5, 6] of the same compound?
Its value is 40.19 h and 40 h.
